Experimental data from paper PMC12884772, “Macrophagic Sclerostin Loop2‐ApoER2 Interaction Required by Sclerostin for Cardiovascular Protective Action” (Advanced Science, 2025).

Target: T1, ApoER2 (Mus musculus, UniProt Q924X6)
T1 construct: FLAG; expressed in transfected cells; host or cells: RAW264.7
T1 sequence (Q924X6 29-996): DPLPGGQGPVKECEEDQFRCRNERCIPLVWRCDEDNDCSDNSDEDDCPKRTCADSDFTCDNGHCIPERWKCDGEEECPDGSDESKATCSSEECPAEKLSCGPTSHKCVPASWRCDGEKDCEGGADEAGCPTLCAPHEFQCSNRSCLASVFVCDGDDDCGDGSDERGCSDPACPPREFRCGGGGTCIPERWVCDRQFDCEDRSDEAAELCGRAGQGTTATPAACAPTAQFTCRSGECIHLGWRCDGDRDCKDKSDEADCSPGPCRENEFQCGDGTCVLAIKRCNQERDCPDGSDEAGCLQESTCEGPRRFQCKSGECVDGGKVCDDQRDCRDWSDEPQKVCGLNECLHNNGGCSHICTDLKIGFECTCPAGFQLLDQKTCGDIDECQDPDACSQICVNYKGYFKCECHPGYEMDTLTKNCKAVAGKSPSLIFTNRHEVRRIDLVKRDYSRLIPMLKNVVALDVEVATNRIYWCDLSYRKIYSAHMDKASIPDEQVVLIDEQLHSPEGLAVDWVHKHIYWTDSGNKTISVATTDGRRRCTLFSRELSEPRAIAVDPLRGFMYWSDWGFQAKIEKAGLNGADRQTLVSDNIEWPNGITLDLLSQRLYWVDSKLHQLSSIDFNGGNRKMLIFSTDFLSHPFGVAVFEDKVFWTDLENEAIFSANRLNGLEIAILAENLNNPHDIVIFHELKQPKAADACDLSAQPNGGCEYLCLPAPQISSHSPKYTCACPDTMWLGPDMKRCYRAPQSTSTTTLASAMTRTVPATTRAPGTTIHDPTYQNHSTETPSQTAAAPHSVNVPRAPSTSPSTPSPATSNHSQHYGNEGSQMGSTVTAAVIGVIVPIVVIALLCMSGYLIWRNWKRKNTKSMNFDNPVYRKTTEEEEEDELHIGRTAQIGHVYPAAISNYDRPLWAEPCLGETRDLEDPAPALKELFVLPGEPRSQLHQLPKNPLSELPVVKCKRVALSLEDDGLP
Assay: Pull‐down assay of ApoER2 by His‐tagged full‐length/truncated/mutated sclerostin in macrophages (RAW264.7)
Type: binding
Settings: RAW264.7 lysate, Ni‐NTA beads, western blot; Figure 6A, S6A
Protocol: The interaction of full‐length (FL)/truncated ApoER2 with full‐length (FL) /truncated sclerostin in macrophages (RAW264.7) were determined by pull‐down assay and Co‐IP assay. The binding affinity of ApoER2 to FL sclerostin and sclerostin loop2 were determined by biolayer interferometry (BLI) analysis. Moreover, the binding of sclerostin to ApoER2 on macrophages (RAW264.7) was examined by confocal microscopy.
The interaction residues within ApoER2 to sclerostin loop2 were determined in combination with pull‐down assay and BLI analysis. Based on the interaction residues within ApoER2 to sclerostin loop2, a series of Lrp8 mutations were developed. Based on the interaction residues within sclerostin loop2 to ApoER2, a series of sost mutations were developed.
Cell lysates were collected using RIPA Lysis and Extraction Buffer (Thermo Scientific, 89 901) supplemented with Protease Inhibitor Cocktail (CST, 5871) and centrifuged at 4000 rpm for 30 min at 4 °C, and replaced with binding buffer (PBS buffer, 20 mM imidazole, pH 8.0). […]
The eluted liquid from pull‐down assay was then mixed with SDS‐PAGE loading buffer and boiled for 10 min at 95 °C to make samples. […] The ECL solution (BIO‐RAD, 1 705 061) was used to visualize detected proteins. […]

- Pull‐down of FLAG‐ApoER2 by the His‐tagged protein/peptide: pulled
Substance: sclerostin: recombinant human/mouse full‐length sclerostin protein
